Reference: publication PMC3744072

Target: matrilin-3 (wild type, mouse) (mouse (endogenous in mouse cartilage and chondrocytes)) (UniProt O35701)
Experiment: non-reducing SDS-PAGE and Western blot; total protein lysates of isolated chondrocytes of 5-day-old mice, 4-12% gels, non-reduced against reduced (0.1 M DTT); oligomers assigned by apparent size

Sequence of matrilin-3 (wild type, mouse) (O35701 28-481): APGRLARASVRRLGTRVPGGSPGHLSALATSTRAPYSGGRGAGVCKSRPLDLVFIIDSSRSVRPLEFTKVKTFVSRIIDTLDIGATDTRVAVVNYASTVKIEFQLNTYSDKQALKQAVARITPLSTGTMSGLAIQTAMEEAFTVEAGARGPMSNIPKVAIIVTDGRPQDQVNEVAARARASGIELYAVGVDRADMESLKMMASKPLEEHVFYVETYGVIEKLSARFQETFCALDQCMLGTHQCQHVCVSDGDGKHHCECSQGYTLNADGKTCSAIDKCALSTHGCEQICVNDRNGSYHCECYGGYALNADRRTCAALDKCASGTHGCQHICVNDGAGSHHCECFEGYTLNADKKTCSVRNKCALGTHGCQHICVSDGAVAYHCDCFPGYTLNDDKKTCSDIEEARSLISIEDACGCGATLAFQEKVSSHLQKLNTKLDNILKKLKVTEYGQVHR

stoichiometry N: 4
Substance: matrilin-3 (wild type, mouse) (from UniProt O35701 28-481) (natural protein)
